Test results reported in US20240254201A1.

Molecular target: EBOV GP on EBOV-eGFP-Mayinga authentic virus (Ebola virus (EBOV), Mayinga) (UniProt Q05320)
Assay: cell-based or functional assay

EBOV GP on EBOV-eGFP-Mayinga authentic virus (Ebola virus (EBOV), Mayinga), sequence (Q05320 33-676 limits assumed): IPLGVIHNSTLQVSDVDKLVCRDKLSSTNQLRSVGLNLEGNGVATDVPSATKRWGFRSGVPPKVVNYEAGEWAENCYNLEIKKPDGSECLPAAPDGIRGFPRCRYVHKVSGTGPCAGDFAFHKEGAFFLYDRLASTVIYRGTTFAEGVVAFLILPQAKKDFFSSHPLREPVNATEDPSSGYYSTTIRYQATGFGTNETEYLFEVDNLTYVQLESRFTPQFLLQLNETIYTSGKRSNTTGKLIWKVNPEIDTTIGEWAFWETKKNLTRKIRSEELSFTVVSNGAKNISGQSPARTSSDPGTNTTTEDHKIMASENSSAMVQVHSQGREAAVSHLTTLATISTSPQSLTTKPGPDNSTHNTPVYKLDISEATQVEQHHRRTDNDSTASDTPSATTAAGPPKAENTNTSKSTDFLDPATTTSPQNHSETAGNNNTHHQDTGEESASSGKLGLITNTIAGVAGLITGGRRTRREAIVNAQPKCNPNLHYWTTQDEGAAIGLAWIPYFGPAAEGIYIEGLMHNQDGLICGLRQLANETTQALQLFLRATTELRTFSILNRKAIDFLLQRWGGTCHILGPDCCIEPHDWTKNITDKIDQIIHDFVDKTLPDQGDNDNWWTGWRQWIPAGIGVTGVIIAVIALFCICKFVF

Substance: CA45 (antibody)
- IC50, EBOV-eGFP-Mayinga authentic virus neutralization test: 8.51 µg/mL
- IC90, EBOV-eGFP-Mayinga authentic virus neutralization test: 13 µg/mL
